Patent US20230000998A1

Molecular target: human TrkB receptor (overexpressed on TrkB-NFAT-bla CHO-K1 reporter cells) (human) (UniProt Q16620)
Assay: cell-based or functional assay

human TrkB receptor (overexpressed on TrkB-NFAT-bla CHO-K1 reporter cells) (human), sequence (Q16620 32-822): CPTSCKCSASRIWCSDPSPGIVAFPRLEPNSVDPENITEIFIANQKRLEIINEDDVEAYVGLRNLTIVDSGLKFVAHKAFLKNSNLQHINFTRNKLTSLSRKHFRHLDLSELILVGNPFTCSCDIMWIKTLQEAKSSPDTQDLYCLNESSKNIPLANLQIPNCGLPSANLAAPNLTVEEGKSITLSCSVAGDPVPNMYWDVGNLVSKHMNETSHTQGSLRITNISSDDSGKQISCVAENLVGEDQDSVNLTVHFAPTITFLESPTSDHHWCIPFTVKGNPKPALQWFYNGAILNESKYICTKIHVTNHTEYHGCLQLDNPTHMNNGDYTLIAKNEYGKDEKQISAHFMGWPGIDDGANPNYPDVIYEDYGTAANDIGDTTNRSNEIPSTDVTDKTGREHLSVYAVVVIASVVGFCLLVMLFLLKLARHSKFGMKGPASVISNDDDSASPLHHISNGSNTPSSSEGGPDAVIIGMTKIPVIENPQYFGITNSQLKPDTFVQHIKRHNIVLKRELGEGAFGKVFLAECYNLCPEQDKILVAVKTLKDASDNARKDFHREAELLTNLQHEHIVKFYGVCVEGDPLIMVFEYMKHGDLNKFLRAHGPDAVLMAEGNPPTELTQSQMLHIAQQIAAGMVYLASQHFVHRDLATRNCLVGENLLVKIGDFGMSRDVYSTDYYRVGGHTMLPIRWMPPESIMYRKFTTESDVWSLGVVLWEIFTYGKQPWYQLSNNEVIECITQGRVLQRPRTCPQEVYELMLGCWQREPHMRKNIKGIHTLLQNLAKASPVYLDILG

Work on “BDNF (brain derived neurotrophic factor; Peprotech) (from UniProt P23560 129-247) (ligand)” yielded an EC50 of beta-lactamase reporter response in TrkB-NFAT-bla CHO-K1 cells of 0.055 nM.
